B1: Ras GTPase-activating-like protein IQG1 (Candida albicans (strain SC5314 / ATCC MYA-2876)), Q5AH02 (parent)
chain: MAIGNIAARYLSSLEETDTTATTTTTTTSNVLQPSNRLNSPTKFNRKSLDNNSQDLDALARALNITPSKPETPTSISKGSATSLLRTKFESPSATVSSFKSTSSSNGVSPTKKNHFVEITSDETPSWANKNYKDILNKSPTKFNTQSNVHTPLKQLNQPIGTPSSSSLSPAKNASKSSPGYEYLCRIEAIKQWLESVLQEQITQSASQLISYIRNGIHLAKLANVVLPTSKPVFLNDSKLQFKHTENINRFFQLLDFFNMPDLFRFELTDLYDAKNVPKVWFCLHALSYILHKQDPSYPAMNNLVGKVDFSADDIRTANRALVNSPLPNFSSADTGEGKSDTSNNNSSTTSATAAFMDKVTSPVKKTPSPLKRPQQLQKKQLELVEDNKPELTQDSSGLSKISRDDPFTDRVDLAPPSTSNAKLELHTPPSKSLEFKIKSPIIDLSHRDSDYYTPELESHLPNIIKFQSLARGAVFRYLMFVDRILLKSYQDEFTNLFAIIRGNKARRKTVHKHRDELRLYSFEIIELQSIIRKNFVINKKPNFTSITNDVETVELQSLIRGKLTRDWKKYVTNGLEKFTPQIIDFQSLVRMKSIYSKSNKVISYKDEILPSLIELQSIARSQLYHRFSRSNAIDETEIIKIQSIIRRNAVIEDLYTKLSKVRSNKRRLIELQSIARGGVARTKLCNSVLVTLIYEDGILNQLFAKIRGDNYRKKFNSQKSELLKYEKSSIIPVQTLFRGVLSRYTKEVTLSDIFDQIDSVITLQSVARGKLMRGSIYEFSDYYQKHIKQVVKAQAILQRVFAQNAYKQLITSKNPPLKVIRRFAPLLSNNDRDFQDEMTLSDLKDLIIEKCKANEEYENQIEQLDMKLGLLDKNKISIEEFLKPTKGKTFKPIVENVKNLERLNKSLKKKIELWQTLFYFIQTNPIYLTKLFNSIPYTKNQTKSGQDLFQSVIQLFPVRDSSITYHSREEYFLVKLMIQLMQNDTANSNNLGDITKLHLTNWIDFFTNFNNHTFQRQHLKALLGKFVIRIVDNEQVDFESDPIRIYNQIIDHEMKVYGRSEKSRDISPQAAIQLPEVSNKFVGNLMSLRETCSDLLSMLQKNASGNKALLQIPDHVKLICRQGYLCAQRKFPDKSDQQHLAVAGVIFVKHYLGSILQVPENYGILTGNNDTQKAKSKDNLRYLYRVMLQLFSMKPFNDNFLKPLNEYIMASTDTVKSIISQAIINVGEIETVYELHDYDDLVTHQRPKLTISVNSLIQLEKSILQNVDIITTGNDDQLYKTCVEVEKLLISPQDMLTLTDLSSVTLNLNPTTQEESIVDSKTKTLFTQAKRCLLYIIRVQEEDDSDDLLELLISGIKPSHEQRFKEIVQYEKAEQDISLNNSKSVTANTVNKKKSTRPYSGTSLGDLSNLTYHELKKMCLEIILKLESMGELTRKNSFQTLLNQIAMDIKTKDSQRQCRWQQLQVSQKTIKKLSEKENYLKTQLHNYKKHVESVLLELQSKSKSNDKNWKRRLFNIMVIPVFSKQYFYHRELRKHNRLPKFGSYKYSAKKLIDQKVLIDFSTANNVATASKLDFMFSCHQVGKFTIEVASGTVNIPGATNTITLDELLALQYENKTKFELFDGMATFDSNNFMGLIFRKFYDLKKE
B2: Ras GTPase-activating-like protein IQG1 (Candida albicans (strain SC5314 / ATCC MYA-2876)), Q5AH02 (parent)
chain: B1 chain
partner: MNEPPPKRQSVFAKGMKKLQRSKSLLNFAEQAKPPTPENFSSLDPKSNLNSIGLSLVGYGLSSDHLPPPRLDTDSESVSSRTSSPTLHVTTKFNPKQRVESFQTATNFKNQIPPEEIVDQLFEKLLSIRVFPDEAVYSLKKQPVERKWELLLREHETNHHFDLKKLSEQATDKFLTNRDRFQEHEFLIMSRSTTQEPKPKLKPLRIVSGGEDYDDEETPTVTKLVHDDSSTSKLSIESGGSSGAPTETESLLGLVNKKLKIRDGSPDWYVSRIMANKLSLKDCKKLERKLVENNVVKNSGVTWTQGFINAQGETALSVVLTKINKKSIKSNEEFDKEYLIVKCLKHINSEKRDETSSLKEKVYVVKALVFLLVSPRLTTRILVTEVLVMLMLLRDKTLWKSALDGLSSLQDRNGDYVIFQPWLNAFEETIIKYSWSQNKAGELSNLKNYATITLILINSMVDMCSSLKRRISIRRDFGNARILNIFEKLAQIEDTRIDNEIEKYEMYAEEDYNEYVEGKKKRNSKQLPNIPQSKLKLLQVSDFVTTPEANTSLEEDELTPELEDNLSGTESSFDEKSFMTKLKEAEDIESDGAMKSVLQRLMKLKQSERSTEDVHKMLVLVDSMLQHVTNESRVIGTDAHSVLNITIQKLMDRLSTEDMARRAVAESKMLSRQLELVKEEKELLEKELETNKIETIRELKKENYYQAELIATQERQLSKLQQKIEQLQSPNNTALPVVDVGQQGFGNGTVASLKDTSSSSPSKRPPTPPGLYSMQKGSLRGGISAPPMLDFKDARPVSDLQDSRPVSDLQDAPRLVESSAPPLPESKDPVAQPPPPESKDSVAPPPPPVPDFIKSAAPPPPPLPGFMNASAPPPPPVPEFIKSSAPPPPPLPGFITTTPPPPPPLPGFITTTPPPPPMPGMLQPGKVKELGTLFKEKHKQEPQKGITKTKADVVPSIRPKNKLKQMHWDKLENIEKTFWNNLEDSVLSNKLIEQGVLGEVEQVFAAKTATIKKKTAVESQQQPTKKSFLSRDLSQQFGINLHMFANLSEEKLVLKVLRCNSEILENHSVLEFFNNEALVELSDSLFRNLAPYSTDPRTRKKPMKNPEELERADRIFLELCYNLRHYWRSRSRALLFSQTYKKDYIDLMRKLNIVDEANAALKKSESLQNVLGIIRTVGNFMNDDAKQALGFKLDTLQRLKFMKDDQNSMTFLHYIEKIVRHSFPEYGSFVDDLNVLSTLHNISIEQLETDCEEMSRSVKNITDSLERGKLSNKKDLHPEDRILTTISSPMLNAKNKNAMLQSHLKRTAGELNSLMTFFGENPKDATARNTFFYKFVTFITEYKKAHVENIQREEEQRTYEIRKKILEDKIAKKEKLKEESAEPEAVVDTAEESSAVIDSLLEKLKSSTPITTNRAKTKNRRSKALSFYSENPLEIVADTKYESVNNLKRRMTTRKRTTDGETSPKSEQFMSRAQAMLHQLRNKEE

Variants of: B1
Details: with bni1_canal BNI1, Q5AL52
bni1_canal BNI1, Q5AL52, sequence (Q5AL52 whole entry): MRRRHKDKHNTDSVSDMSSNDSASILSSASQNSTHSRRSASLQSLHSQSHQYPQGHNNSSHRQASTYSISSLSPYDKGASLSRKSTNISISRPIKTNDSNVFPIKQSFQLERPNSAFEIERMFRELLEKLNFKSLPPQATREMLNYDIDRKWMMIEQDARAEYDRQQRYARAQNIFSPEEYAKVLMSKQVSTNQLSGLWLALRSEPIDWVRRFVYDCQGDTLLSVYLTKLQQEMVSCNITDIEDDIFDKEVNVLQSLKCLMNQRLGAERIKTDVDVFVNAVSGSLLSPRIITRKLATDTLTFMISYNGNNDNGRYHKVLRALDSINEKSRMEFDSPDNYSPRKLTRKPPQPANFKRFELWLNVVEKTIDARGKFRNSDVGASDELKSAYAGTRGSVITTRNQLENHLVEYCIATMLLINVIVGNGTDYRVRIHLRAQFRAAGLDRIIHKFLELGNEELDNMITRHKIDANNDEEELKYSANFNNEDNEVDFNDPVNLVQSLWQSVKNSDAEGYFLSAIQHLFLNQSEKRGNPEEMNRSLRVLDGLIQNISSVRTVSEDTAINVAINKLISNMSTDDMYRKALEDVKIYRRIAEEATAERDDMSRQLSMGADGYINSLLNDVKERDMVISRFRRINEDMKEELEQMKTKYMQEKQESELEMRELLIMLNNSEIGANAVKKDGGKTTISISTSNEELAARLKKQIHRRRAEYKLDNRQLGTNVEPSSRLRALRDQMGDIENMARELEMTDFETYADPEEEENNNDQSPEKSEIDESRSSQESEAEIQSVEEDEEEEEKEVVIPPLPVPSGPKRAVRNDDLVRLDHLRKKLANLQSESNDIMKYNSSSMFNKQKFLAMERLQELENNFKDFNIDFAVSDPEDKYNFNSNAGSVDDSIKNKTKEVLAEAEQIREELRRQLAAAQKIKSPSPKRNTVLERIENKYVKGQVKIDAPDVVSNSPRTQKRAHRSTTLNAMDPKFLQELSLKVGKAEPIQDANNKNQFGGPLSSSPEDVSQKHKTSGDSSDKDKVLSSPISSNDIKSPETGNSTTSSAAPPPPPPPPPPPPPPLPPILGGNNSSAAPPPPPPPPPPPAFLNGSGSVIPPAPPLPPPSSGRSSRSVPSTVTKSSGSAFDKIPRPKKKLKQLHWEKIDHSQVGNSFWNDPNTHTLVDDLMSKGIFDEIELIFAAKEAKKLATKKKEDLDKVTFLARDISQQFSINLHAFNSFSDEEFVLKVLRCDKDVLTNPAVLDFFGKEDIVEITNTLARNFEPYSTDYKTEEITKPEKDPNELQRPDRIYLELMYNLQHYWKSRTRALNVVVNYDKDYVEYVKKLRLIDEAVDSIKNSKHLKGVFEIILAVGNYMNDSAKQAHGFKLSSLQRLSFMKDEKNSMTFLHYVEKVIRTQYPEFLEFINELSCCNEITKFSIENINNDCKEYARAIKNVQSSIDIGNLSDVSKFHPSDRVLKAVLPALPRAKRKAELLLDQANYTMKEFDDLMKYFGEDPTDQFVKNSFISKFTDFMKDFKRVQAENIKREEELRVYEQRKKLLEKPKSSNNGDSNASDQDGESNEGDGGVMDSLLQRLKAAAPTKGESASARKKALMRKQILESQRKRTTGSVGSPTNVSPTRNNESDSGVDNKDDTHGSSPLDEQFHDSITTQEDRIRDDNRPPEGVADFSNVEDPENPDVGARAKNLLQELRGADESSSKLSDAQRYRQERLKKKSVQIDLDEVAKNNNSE

Variant | effect of a mutation on the interaction
E15A | disrupting interaction

Variants of: B2
Details: with bnr1_canal BNR1, Q5AAF4

Variant | effect of a mutation on the interaction
E15A | disrupting interaction

Reference: IntAct's records for PubMed 18923418
